± gives the standard deviation of the averaged measurements.
system: ATP; assay: switch fluorescence ratio, 500 uM ATP over buffer (Cy3 cluster intensity, sum of 5 cycles each) (fold (ratio)); higher = stronger signal-on switching upon ATP binding; sequences stand for … in TCGTCGGCAGCGTCAGATGTGTATAAGAGACAGTTTTTTTTTTTTTTTTTTTTTTTTT…TC; conditions: aptamer strand: ATP DNA aptamer (quencher-CACCTGGGGGAGTATTGCGGAGGAAGG + anchor), 100 nM annealed; ATP concentration: 500 uM
Summary of the method: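 Cy3-labelled switching-strand clusters on a modified Illumina MiSeq flow-cell were annealed to 100 nM quencher-labelled ATP aptamer, imaged in selection buffer, then imaged after 15 min with 500 uM ATP at 22 °C. Five buffer/ATP cycles ran, with NaOH stripping and re-annealing between them. The fluorescence ratio is summed target-cycle over summed buffer-cycle Cy3 intensity per cluster, averaged per switch-domain sequence. Clusters outside 100-1000 RFU were excluded.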
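Note: ATP exposure 15 min at 22 °C before imaging.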

Sequence | switch fluorescence ratio
GAGTAAAACA | 1.16 ± 0.27
ACGTTTAGTG | 1.02 ± 0.016
CTGAAAGGGT | 1.01 ± 0.011
TTAGGACGCT | 1.03 ± 0.036
CGGCCTACAG | 1.05 ± 0.028
GTGGAATATT | 1.04 ± 0.063
TGATTAGGGC | 1.01 ± 0.017
TTGGGACGGT | 0.9972 ± 0.0076
ATTTTGGGTC | 0.991 ± 0.047
TTGAAATTAC | 1.03 ± 0.065
ATCTGTTGTC | 1.06 ± 0.021
TAGTAGGTAC | 1.04 ± 0.025
GCTCAGTAGT | 1.03 ± 0.027
TTGAATGTTG | 1.004 ± 0.0037
CTGGGGTGTA | 1.03 ± 0.059
TTTAATTGGT | 1.02 ± 0.021
AGTAAAGTGC | 1.03 ± 0.045
AGCCAGAGGG | 1.005 ± 0.0055
AGGTCTGGCA | 0.995 ± 0.016
ACTCTGGGTC | 1.07 ± 0.016
TGCAAAGAGC | 0.9824 ± 0.0073
TTTGGGCTCC | 0.98 ± 0.018

Sequence | switch fluorescence ratio
GGTTTCAGGG | 0.986 ± 0.013
GTAGGTTATG | 1.007 ± 0.0081
TGGGGCAGGT | 0.997 ± 0.051
GGGTTTTAAC | 0.9798 ± 0.0034
CTAGCTGACC | 1.11 ± 0.046
AAATAAGTC | 0.945 ± 0.024
GGATGGTTGC | 1.03 ± 0.021
GGTTGAATTG | 0.974 ± 0.01
TTCGATAAGA | 0.999 ± 0.06
GGCTTGGCCC | 1.015 ± 0.0063
TGGAGTTTAA | 1 ± 0.026
AGAGAATGGT | 0.999 ± 0.027
TCCAGTAGGT | 1.01 ± 0.0032
ATAGGCATCA | 1.18 ± 0.3
CGCAGTTGGA | 1.03 ± 0.039
ACCAGGCTTG | 1.02 ± 0.016
TACGTTCAGG | 1.02 ± 0.011
ACGTGGGTAG | 0.987 ± 0.041
GAGAGAGGGT | 0.997 ± 0.014
TGGGGTGCCA | 0.9795 ± 0.0071
AGGGGTAGGC | 0.9893 ± 0.0036
TAATAATCCA | 0.994 ± 0.017

Sequence | switch fluorescence ratio
ATTCCCGGGG | 1.06 ± 0.059
GGGGAAAATA | 1.007 ± 0.0048
GACTTGTGGG | 1.02 ± 0.084
TCGGGGTGAC | 1.01 ± 0.018
TCGGGGGACT | 0.9827 ± 0.0063
CCTGGTTTTT | 1.12 ± 0.15
TTGGGTAGCC | 1.03 ± 0.032
TACATGGACC | 1.12 ± 0.025
CGGATCGGGG | 1.17 ± 0.15
CCTGGGTCTA | 1.03 ± 0.023
AACGGGCTAG | 0.999 ± 0.014
GTTTTTATGA | 0.973 ± 0.017
ACGTGCTTAT | 0.976 ± 0.013
TTTTCCTTTT | 1.04 ± 0.082
CGACGAACGA | 1.54 ± 0.07
TCGGTATATA | 1.03 ± 0.033
ACAGTACACA | 1.3 ± 0.061
GGATTAGTGA | 0.964 ± 0.036
CCGGAGTTGG | 3.49 ± 0.11
ATTTAAGGTA | 1.01 ± 0.024
TGTGGTAAGT | 1.01 ± 0.062
TTTCGTTGGT | 0.982 ± 0.016

Sequence | switch fluorescence ratio
TGAGGAAGGC | 0.992 ± 0.039
TATTAGTTAA | 0.992 ± 0.019
AAGATATCGA | 1.02 ± 0.014
GAAGGAAGAT | 0.9708 ± 0.0069
GGGAGTCCAA | 0.995 ± 0.019
CATTTAGGAT | 0.985 ± 0.018
CTGGGTGCCG | 0.968 ± 0.084
GCAAGGTTAT | 1.01 ± 0.018
AAATCTGTAA | 1.03 ± 0.06
ATCCAGGGTA | 1.01 ± 0.03
TCACAAATAA | 0.993 ± 0.043
TAATGGGCGA | 0.976 ± 0.064
GGGGACCTAC | 1.08 ± 0.022
GAGGTGTTGC | 0.985 ± 0.035
GTATGAAGAG | 0.995 ± 0.023
TCTTTGCGCC | 1.06 ± 0.019
GGGCATCGGG | 0.991 ± 0.013
GAGTTAAGAC | 0.991 ± 0.049
GAAGGGAGCA | 1.02 ± 0.028
